Test results: US20120269821A1 (published 2012)

Key:
HIV-1 gp41 = HIV-1 gp41 (HIV-1); assay: antigen panel (luminex assay per paragraph 163); unit not given
MOJO gp140 = molecular target: T1, MOJO gp140 (HIV-1); assay: as above
T1 construct: domain: gp140

hepatitis E2 protein = hepatitis E2 protein (Hepatitis C); assay: as above
QH0692.42 envelope [1] = molecular target: QH0692.42 envelope (HIV-1); assay: cell-based or functional assay
Du156.12 envelope [2] = molecular target: Du156.12 envelope (HIV-1); assay: cell-based or functional assay
ZM197M.PB7 envelope [3] = molecular target: ZM197M.PB7 envelope (HIV-1); assay: cell-based or functional assay
SC422661.8 envelope = SC422661.8 envelope (HIV-1); assay: cell-based or functional assay
Du422.1 envelope [4] = molecular target: Du422.1 envelope (HIV-1); assay: cell-based or functional assay
CAP206.1.B5 envelope [5] = molecular target: CAP206.1.B5 envelope (HIV-1); assay: cell-based or functional assay
QH0692.42 envelope [6] = molecular target: QH0692.42 envelope (HIV-1); assay: cell-based or functional assay; parameters: unit not given beside the values
Du156.12 envelope [7] = molecular target: Du156.12 envelope (HIV-1); assay: cell-based or functional assay; parameters: unit not given beside the values
ZM197M.PB7 envelope [8] = molecular target: ZM197M.PB7 envelope (HIV-1); assay: cell-based or functional assay; parameters: unit not given beside the values
Du422.1 envelope [9] = molecular target: Du422.1 envelope (HIV-1); assay: cell-based or functional assay; parameters: unit not given beside the values
TRO.11 envelope = TRO.11 envelope (HIV-1); assay: cell-based or functional assay; parameters: unit not given beside the values
CAP206.1.B5 envelope [10] = molecular target: CAP206.1.B5 envelope (HIV-1); assay: cell-based or functional assay; parameters: unit not given beside the values

B1: CAP206-CH12 (antibody, V domains shown)
VH: QVQLVQSGAEVKKPGSSVKLSCKASGGTFGSYSVTWVRQAPGQTFEWVGRIVPWVGVPNYAPKFQGRVTITADKSSTVYMELTSLRFEDTAVYYCATAYEASGLSYYYYMDDWGKGTTVTVSS
VL: EIVLTQSPGTLSLSPGERATLSCRASQSVTSSYLAWFRHKPGQAPRLLIYGASYRGTGIPDRISGSGSGTDFTLTISRLEPEDFAVYYCQHYGGSPGMYTFGQGTRLEIK
notes: also called mAb 2311; 2311
HIV-1 gp41
  reactivity: 1980
MOJO gp140
  reactivity: 2910
Hepatitis E2 protein
  reactivity: 855
QH0692.42 envelope [1]
  IC50 in TZM-bl/FcγRI cells: > 32000 µg/mL
Du156.12 envelope [2]
  IC50 in TZM-bl/FcγRI cells: 600 µg/mL
ZM197M.PB7 envelope [3]
  IC50 in TZM-bl/FcγRI cells: 300 µg/mL
SC422661.8 envelope
  IC50 in TZM-bl/FcγRI cells: 400 µg/mL
Du422.1 envelope [4]
  IC50 in TZM-bl/FcγRI cells: 2700 µg/mL
CAP206.1.B5 envelope [5]
  IC50 in TZM-bl/FcγRI cells: 700 µg/mL
QH0692.42 envelope [6]
  IC50 in TZM-bl cells: > 32
Du156.12 envelope [7]
  IC50 in TZM-bl cells: 14.9
ZM197M.PB7 envelope [8]
  IC50 in TZM-bl cells: 13
Du422.1 envelope [9]
  IC50 in TZM-bl cells: > 32
TRO.11 envelope
  IC50 in TZM-bl cells: 17.5
CAP206.1.B5 envelope [10]
  IC50 in TZM-bl cells: 5.9
